To fix the notation:
B1: FBF1 (parent)
chain: FGDSPKAEKRQIGDQEGPRPARST
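Further: lentivirally expressed fusions sorted by FACS into six bins by GFP to DsRed ratio, PSI derived from sequencing read proportions per bin multiplied by bin number.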

This data set covers variants of B1. Nature of the data set: protein stability index of a GFP-peptide fusion (GPS, HEK-293T) (PSI 1-6); higher = more stable. Particulars: c terminus: a fixed tail appended.
With FGCSPKAEKRQIGDQEGPRPARST [D3C], the protein stability index is 4.62.

With FGESPKAEKRQIGDQEGPRPARST [D3E], the protein stability index amounted to 5.41.

FGVSPKAEKRQIGDQEGPRPARST [D3V]: the protein stability index amounted to 5.55.

FGNSPKAEKRQIGDQEGPRPARST [D3N]: the protein stability index was 5.06.

Take FGISPKAEKRQIGDQEGPRPARST [D3I]: the protein stability index is 5.04.

For FGTSPKAEKRQIGDQEGPRPARST [D3T], the protein stability index is 4.99.

For the variant FGDSPKAEKRNIGDQEGPRPARST [Q11N], the protein stability index was found to be 5.38.

As to FGDSPKAEKRKIGDQEGPRPARST [Q11K], the protein stability index worked out at 4.86.

As to FGDSPKAEKREIGDQEGPRPARST [Q11E], the protein stability index is 5.33.

With FGDSPKAEKRMIGDQEGPRPARST [Q11M], the protein stability index stood at 5.22.

FGDSPKAEKRHIGDQEGPRPARST [Q11H]: the protein stability index came to 5.16.

For the variant FGDSPKAEKRFIGDQEGPRPARST [Q11F], the protein stability index was 3.59.

With FGDSPKAEKRAIGDQEGPRPARST [Q11A], the protein stability index was 5.6.

As for FGDSPKAEKRDIGDQEGPRPARST [Q11D], the protein stability index stood at 5.29.

Regarding FGDSPKAEKRQIGDQEGPRPFRST [A21F], the protein stability index was 4.52.

As to FGDSPKAEKRQIGDQEGPRPTRST [A21T], the protein stability index worked out at 5.9.

For the variant FGDSPKAEKRQIGDQEGPRPDRST [A21D], the protein stability index turned out to be 5.5.

FGDSPKAEKRQIGDQEGPRPLRST [A21L]: the protein stability index stood at 4.17.

Consider FGDSPKAEKRQIGDQEGPRPPRST [A21P], for which the protein stability index came out at 5.19.

Turning to FGDSPKAEKRQIGDQEGKRPARST [P18K], the protein stability index worked out at 5.21.

For FGDSPKAEKRQIGDQEGMRPARST [P18M], the protein stability index is 4.71.

Consider FGDSPKAEKRQIGDQEGLRPARST [P18L], for which the protein stability index was found to be 5.02.

As to FGDSPKAEKRQIGDQEGFRPARST [P18F], the protein stability index came out at 4.85.

As for FGDSPKAEKRQIGDQEGHRPARST [P18H], the protein stability index is 4.77.

For the variant FGDSPKAEKRQIGDQEGVRPARST [P18V], the protein stability index is 4.96.

As to FGDSPKAEKRQIGDQEGNRPARST [P18N], the protein stability index stood at 4.15.

With NGDSPKAEKRQIGDQEGPRPARST [F1N], the protein stability index was determined as 5.54.

Regarding CGDSPKAEKRQIGDQEGPRPARST [F1C], the protein stability index turned out to be 4.95.

For the variant KGDSPKAEKRQIGDQEGPRPARST [F1K], the protein stability index was 5.79.

For the variant TGDSPKAEKRQIGDQEGPRPARST [F1T], the protein stability index worked out at 5.76.

Consider IGDSPKAEKRQIGDQEGPRPARST [F1I], for which the protein stability index was found to be 5.41.

With YGDSPKAEKRQIGDQEGPRPARST [F1Y], the protein stability index was determined as 5.42.

For SGDSPKAEKRQIGDQEGPRPARST [F1S], the protein stability index amounted to 5.51.

As to EGDSPKAEKRQIGDQEGPRPARST [F1E], the protein stability index was found to be 5.52.

Regarding FGDSPKAEKRQIGDQEGPRPATST [R22T], the protein stability index is 4.8.

Regarding FGDSPKAEKRQIGDQEGPRPAPST [R22P], the protein stability index worked out at 5.64.

Take FGDSPKAEKRQIGDQEGPRPAFST [R22F]: the protein stability index was determined as 4.49.

For FGDSPKAEKRQIGDQEGPRPALST [R22L], the protein stability index was 5.38.

Regarding FGDSPKAEKRQIGDQEGPRPAGST [R22G], the protein stability index came out at 4.92.

Regarding FGDSPKAEKRQIGDQEGPRPASST [R22S], the protein stability index came out at 5.4.

For FGDCPKAEKRQIGDQEGPRPARST [S4C], the protein stability index is 5.01.

On to FGDYPKAEKRQIGDQEGPRPARST [S4Y], for which the protein stability index was determined as 4.31.

Consider FGDRPKAEKRQIGDQEGPRPARST [S4R], for which the protein stability index was determined as 4.88.

Take FGDMPKAEKRQIGDQEGPRPARST [S4M]: the protein stability index was 4.68.

In the case of FGDSPKAEKRQIGDQETPRPARST [G17T], the protein stability index came to 4.67.

FGDSPKAEKRQIGDQEHPRPARST [G17H]: the protein stability index worked out at 4.83.

Turning to FGDSPKAEKRQIGDQEQPRPARST [G17Q], the protein stability index was determined as 5.15.

FGDSPKAEKRQIGDQERPRPARST [G17R]: the protein stability index was 5.1.

As to FGDSPKAEKRQIGDQELPRPARST [G17L], the protein stability index came to 4.77.

Consider FGDSPKAEKRQIGDCEGPRPARST [Q15C], for which the protein stability index was 4.23.

In the case of FGDSPKAEKRQIGDDEGPRPARST [Q15D], the protein stability index came out at 5.65.

As for FGDSPKAEKRQIGDHEGPRPARST [Q15H], the protein stability index amounted to 3.53.

In the case of FGDSPKAEKRQIGDTEGPRPARST [Q15T], the protein stability index came out at 4.96.

In the case of FGDSPKAEKRQIGDIEGPRPARST [Q15I], the protein stability index is 4.65.

Consider FGDSPKAEKRQIGDMEGPRPARST [Q15M], for which the protein stability index was 5.03.

For the variant FGDSPKAEKRQIGDNEGPRPARST [Q15N], the protein stability index was determined as 4.69.

For FGDSPKAEKRQIGDFEGPRPARST [Q15F], the protein stability index came to 4.32.

Regarding FGDSPKAEKRQIGDSEGPRPARST [Q15S], the protein stability index turned out to be 5.72.

Consider FGDSPKAEKRQIGDQEGPRGARST [P20G], for which the protein stability index came to 3.96.

For FGDSPKAEKRQIGDQEGPRMARST [P20M], the protein stability index turned out to be 4.96.

In the case of FGDSPKAEKRQIGDQEGPRYARST [P20Y], the protein stability index came to 4.91.

In the case of FGDSPKAEKRQIGDQEGPRSARST [P20S], the protein stability index came to 5.02.

As for FGDSPKAEKRQIGDQEGPRWARST [P20W], the protein stability index was 4.58.

Consider FGDSPKAEKRQIGDQEGPRLARST [P20L], for which the protein stability index worked out at 4.46.

For FGDSPKAEKRQIGDQEGPRIARST [P20I], the protein stability index is 4.84.

As to FGDSPKAEKRQIGDQEGPRFARST [P20F], the protein stability index is 4.57.

As for FGDSPKAEKRQIGDQEGPRPARSF [T24F], the protein stability index was determined as 4.83.

For FGDSPKAEKRQIGDQEGPRPARSV [T24V], the protein stability index was 4.67.

Regarding FGDSQKAEKRQIGDQEGPRPARST [P5Q], the protein stability index came to 4.55.

In the case of FGDSVKAEKRQIGDQEGPRPARST [P5V], the protein stability index turned out to be 4.13.

As for FGDSTKAEKRQIGDQEGPRPARST [P5T], the protein stability index worked out at 5.19.

With FGDSLKAEKRQIGDQEGPRPARST [P5L], the protein stability index turned out to be 4.58.

With FGDSCKAEKRQIGDQEGPRPARST [P5C], the protein stability index was 4.63.

Turning to FGDSDKAEKRQIGDQEGPRPARST [P5D], the protein stability index was 5.72.

As to FGDSEKAEKRQIGDQEGPRPARST [P5E], the protein stability index was found to be 5.24.

As for FGDSPKTEKRQIGDQEGPRPARST [A7T], the protein stability index was determined as 4.44.

With FGDSPKEEKRQIGDQEGPRPARST [A7E], the protein stability index came to 5.89.

As for FGDSPKDEKRQIGDQEGPRPARST [A7D], the protein stability index amounted to 5.53.

On to FGDSPKFEKRQIGDQEGPRPARST [A7F], for which the protein stability index is 3.85.

FGDSPKQEKRQIGDQEGPRPARST [A7Q]: the protein stability index stood at 5.1.

FGDSPKGEKRQIGDQEGPRPARST [A7G]: the protein stability index came out at 4.89.

Take FGDSPKVEKRQIGDQEGPRPARST [A7V]: the protein stability index turned out to be 3.47.

With FHDSPKAEKRQIGDQEGPRPARST [G2H], the protein stability index worked out at 4.58.

Consider FMDSPKAEKRQIGDQEGPRPARST [G2M], for which the protein stability index was found to be 4.96.

For the variant FDDSPKAEKRQIGDQEGPRPARST [G2D], the protein stability index was 4.94.

For FRDSPKAEKRQIGDQEGPRPARST [G2R], the protein stability index was found to be 5.98.

Regarding FKDSPKAEKRQIGDQEGPRPARST [G2K], the protein stability index is 4.72.

Consider FQDSPKAEKRQIGDQEGPRPARST [G2Q], for which the protein stability index amounted to 4.99.

FGDSPKAEKYQIGDQEGPRPARST [R10Y]: the protein stability index worked out at 4.97.

FGDSPKAEKQQIGDQEGPRPARST [R10Q]: the protein stability index was found to be 4.86.

FGDSPKAEKNQIGDQEGPRPARST [R10N]: the protein stability index is 5.42.

As for FGDSPKAEKLQIGDQEGPRPARST [R10L], the protein stability index was found to be 4.59.

On to FGDSPKAEKCQIGDQEGPRPARST [R10C], for which the protein stability index was determined as 5.02.

Regarding FGDSPKAEKKQIGDQEGPRPARST [R10K], the protein stability index worked out at 4.76.

In the case of FGDSPKAEKSQIGDQEGPRPARST [R10S], the protein stability index is 5.44.
